{"source": "patent US12630600B2", "about": "(MEDIMMUNE LIMITED, priority 2022, dated 2026)", "key": {"human GLP-1 receptor": {"target": "human GLP-1 receptor (human, UniProt P43220)", "assay": "cell-based or functional assay"}, "human glucagon receptor": {"target": "human glucagon receptor (human, UniProt P47871)", "assay": "cell-based or functional assay"}}, "note": "Starred links: 1 amine or outer side, 2 acyl side, 3 side chain; linkers in the order of their positions; H or OH if unused. Non-standard residues stand in square brackets, D forms with d. Groups on a side chain read outwards from the residue. No end group written: not given here. *: point of attachment. C20 diacid = O=C(O)CCCCCCCCCCCCCCCCCCC(=O)*; C18 diacid = O=C(O)CCCCCCCCCCCCCCCCC(=O)*; γGlu = O=C(O)[C@H](CCC(=O)[*:2])N[*:1]; αMeF = C[C@](N)(Cc1ccccc1)C(=O)O; AEEA = NCCOCCOCC(=O)O; Aib = CC(C)(N)C(=O)O"}
{"binder": "H[Aib]QGTFTSDVSK[αMeF]LDTK([AEEA-AEEA-γGlu-C20 diacid])RAQDFVQWLL[Aib]E-NH2 (N-terminus assumed; SMILES CC(C)C[C@H](NC(=O)[C@H](Cc1c[nH]c2ccccc12)NC(=O)[C@H](CCC(N)=O)NC(=O)[C@@H](NC(=O)[C@H](Cc1ccccc1)NC(=O)[C@H](CC(=O)O)NC(=O)[C@H](CCC(N)=O)NC(=O)[C@H](C)NC(=O)[C@H](CCCNC(=N)N)NC(=O)[C@H](CCCCNC(=O)COCCOCCNC(=O)COCCOCCNC(=O)CC[C@H](NC(=O)CCCCCCCCCCCCCCCCCCC(=O)O)C(=O)O)NC(=O)[C@@H](NC(=O)[C@H](CC(=O)O)NC(=O)[C@H](CC(C)C)NC(=O)[C@](C)(Cc1ccccc1)NC(=O)[C@H](CCCCN)NC(=O)[C@H](CO)NC(=O)[C@@H](NC(=O)[C@H](CC(=O)O)NC(=O)[C@H](CO)NC(=O)[C@@H](NC(=O)[C@H](Cc1ccccc1)NC(=O)[C@@H](NC(=O)CNC(=O)[C@H](CCC(N)=O)NC(=O)C(C)(C)NC(=O)[C@@H](N)Cc1c[nH]cn1)[C@@H](C)O)[C@@H](C)O)C(C)C)[C@@H](C)O)C(C)C)C(=O)N[C@@H](CC(C)C)C(=O)NC(C)(C)C(=O)N[C@@H](CCC(=O)O)C(N)=O)", "note": "[Peptide 485]", "values": [{"measurement": "cAMP production EC50", "setting": "human GLP-1 receptor", "result": 0.219, "unit": "nM"}, {"measurement": "cAMP production EC50", "setting": "human glucagon receptor", "result": 0.0904, "unit": "nM"}]}
{"binder": "H[Aib]QGTFTSDVSK[αMeF]LDTK([AEEA-AEEA-γGlu-C20 diacid])RAQDFVQWLL[Aib]E-OH (N-terminus assumed; SMILES CC(C)C[C@H](NC(=O)[C@H](Cc1c[nH]c2ccccc12)NC(=O)[C@H](CCC(N)=O)NC(=O)[C@@H](NC(=O)[C@H](Cc1ccccc1)NC(=O)[C@H](CC(=O)O)NC(=O)[C@H](CCC(N)=O)NC(=O)[C@H](C)NC(=O)[C@H](CCCNC(=N)N)NC(=O)[C@H](CCCCNC(=O)COCCOCCNC(=O)COCCOCCNC(=O)CC[C@H](NC(=O)CCCCCCCCCCCCCCCCCCC(=O)O)C(=O)O)NC(=O)[C@@H](NC(=O)[C@H](CC(=O)O)NC(=O)[C@H](CC(C)C)NC(=O)[C@](C)(Cc1ccccc1)NC(=O)[C@H](CCCCN)NC(=O)[C@H](CO)NC(=O)[C@@H](NC(=O)[C@H](CC(=O)O)NC(=O)[C@H](CO)NC(=O)[C@@H](NC(=O)[C@H](Cc1ccccc1)NC(=O)[C@@H](NC(=O)CNC(=O)[C@H](CCC(N)=O)NC(=O)C(C)(C)NC(=O)[C@@H](N)Cc1c[nH]cn1)[C@@H](C)O)[C@@H](C)O)C(C)C)[C@@H](C)O)C(C)C)C(=O)N[C@@H](CC(C)C)C(=O)NC(C)(C)C(=O)N[C@@H](CCC(=O)O)C(=O)O)", "note": "[Peptide 484]", "values": [{"measurement": "cAMP production EC50", "setting": "human GLP-1 receptor", "result": 0.339, "unit": "nM"}, {"measurement": "cAMP production EC50", "setting": "human glucagon receptor", "result": 0.169, "unit": "nM"}]}
{"binder": "H[Aib]QGTFTSDVSK[αMeF]LDTK([AEEA-AEEA-γGlu-C18 diacid])RARDFVQWLL[Aib]TE-OH (N-terminus assumed; SMILES CC(C)C[C@H](NC(=O)[C@H](Cc1c[nH]c2ccccc12)NC(=O)[C@H](CCC(N)=O)NC(=O)[C@@H](NC(=O)[C@H](Cc1ccccc1)NC(=O)[C@H](CC(=O)O)NC(=O)[C@H](CCCNC(=N)N)NC(=O)[C@H](C)NC(=O)[C@H](CCCNC(=N)N)NC(=O)[C@H](CCCCNC(=O)COCCOCCNC(=O)COCCOCCNC(=O)CC[C@H](NC(=O)CCCCCCCCCCCCCCCCC(=O)O)C(=O)O)NC(=O)[C@@H](NC(=O)[C@H](CC(=O)O)NC(=O)[C@H](CC(C)C)NC(=O)[C@](C)(Cc1ccccc1)NC(=O)[C@H](CCCCN)NC(=O)[C@H](CO)NC(=O)[C@@H](NC(=O)[C@H](CC(=O)O)NC(=O)[C@H](CO)NC(=O)[C@@H](NC(=O)[C@H](Cc1ccccc1)NC(=O)[C@@H](NC(=O)CNC(=O)[C@H](CCC(N)=O)NC(=O)C(C)(C)NC(=O)[C@@H](N)Cc1c[nH]cn1)[C@@H](C)O)[C@@H](C)O)C(C)C)[C@@H](C)O)C(C)C)C(=O)N[C@@H](CC(C)C)C(=O)NC(C)(C)C(=O)N[C@H](C(=O)N[C@@H](CCC(=O)O)C(=O)O)[C@@H](C)O)", "note": "[Peptide 487]", "values": [{"measurement": "cAMP production EC50", "setting": "human GLP-1 receptor", "result": 0.0655, "unit": "nM"}, {"measurement": "cAMP production EC50", "setting": "human glucagon receptor", "result": 0.164, "unit": "nM"}]}
{"binder": "H[Aib]QGTFTSDVSK[αMeF]LESK([AEEA-AEEA-γGlu-C18 diacid])RAQDFVQWLL[Aib]E-OH (N-terminus assumed; SMILES CC(C)C[C@H](NC(=O)[C@H](Cc1c[nH]c2ccccc12)NC(=O)[C@H](CCC(N)=O)NC(=O)[C@@H](NC(=O)[C@H](Cc1ccccc1)NC(=O)[C@H](CC(=O)O)NC(=O)[C@H](CCC(N)=O)NC(=O)[C@H](C)NC(=O)[C@H](CCCNC(=N)N)NC(=O)[C@H](CCCCNC(=O)COCCOCCNC(=O)COCCOCCNC(=O)CC[C@H](NC(=O)CCCCCCCCCCCCCCCCC(=O)O)C(=O)O)NC(=O)[C@H](CO)NC(=O)[C@H](CCC(=O)O)NC(=O)[C@H](CC(C)C)NC(=O)[C@](C)(Cc1ccccc1)NC(=O)[C@H](CCCCN)NC(=O)[C@H](CO)NC(=O)[C@@H](NC(=O)[C@H](CC(=O)O)NC(=O)[C@H](CO)NC(=O)[C@@H](NC(=O)[C@H](Cc1ccccc1)NC(=O)[C@@H](NC(=O)CNC(=O)[C@H](CCC(N)=O)NC(=O)C(C)(C)NC(=O)[C@@H](N)Cc1c[nH]cn1)[C@@H](C)O)[C@@H](C)O)C(C)C)C(C)C)C(=O)N[C@@H](CC(C)C)C(=O)NC(C)(C)C(=O)N[C@@H](CCC(=O)O)C(=O)O)", "note": "[Peptide 482]", "values": [{"measurement": "cAMP production EC50", "setting": "human GLP-1 receptor", "result": 0.19, "unit": "nM"}, {"measurement": "cAMP production EC50", "setting": "human glucagon receptor", "result": 0.691, "unit": "nM"}]}
{"binder": "H[Aib]QGTFTSDVSK[αMeF]LDTK([AEEA-AEEA-γGlu-C18 diacid])RAQDFVQWLL[Aib]E-OH", "note": "[Peptide 483]", "values": [{"measurement": "cAMP production EC50", "setting": "human GLP-1 receptor", "result": 0.178, "unit": "nM"}, {"measurement": "cAMP production EC50", "setting": "human glucagon receptor", "result": 0.169, "unit": "nM"}]}
{"binder": "H[Aib]QGTFTSDVSK[αMeF]LDLK([AEEA-AEEA-γGlu-C20 diacid])RAQDFVRWLL[Aib]E-OH (N-terminus assumed; SMILES CC(C)C[C@H](NC(=O)[C@H](CC(=O)O)NC(=O)[C@H](CC(C)C)NC(=O)[C@](C)(Cc1ccccc1)NC(=O)[C@H](CCCCN)NC(=O)[C@H](CO)NC(=O)[C@@H](NC(=O)[C@H](CC(=O)O)NC(=O)[C@H](CO)NC(=O)[C@@H](NC(=O)[C@H](Cc1ccccc1)NC(=O)[C@@H](NC(=O)CNC(=O)[C@H](CCC(N)=O)NC(=O)C(C)(C)NC(=O)[C@@H](N)Cc1c[nH]cn1)[C@@H](C)O)[C@@H](C)O)C(C)C)C(=O)N[C@@H](CCCCNC(=O)COCCOCCNC(=O)COCCOCCNC(=O)CC[C@H](NC(=O)CCCCCCCCCCCCCCCCCCC(=O)O)C(=O)O)C(=O)N[C@@H](CCCNC(=N)N)C(=O)N[C@@H](C)C(=O)N[C@@H](CCC(N)=O)C(=O)N[C@@H](CC(=O)O)C(=O)N[C@@H](Cc1ccccc1)C(=O)N[C@H](C(=O)N[C@@H](CCCNC(=N)N)C(=O)N[C@@H](Cc1c[nH]c2ccccc12)C(=O)N[C@@H](CC(C)C)C(=O)N[C@@H](CC(C)C)C(=O)NC(C)(C)C(=O)N[C@@H](CCC(=O)O)C(=O)O)C(C)C)", "note": "[Peptide 486]", "values": [{"measurement": "cAMP production EC50", "setting": "human GLP-1 receptor", "result": 0.42, "unit": "nM"}, {"measurement": "cAMP production EC50", "setting": "human glucagon receptor", "result": 0.166, "unit": "nM"}]}
{"binder": "H[Aib]QGTFTSDVSK[αMeF]LDTK([AEEA-AEEA-γGlu-C20 diacid])RARDFVQWLLE[Aib]K-NH2 (N-terminus assumed; SMILES CC(C)C[C@H](NC(=O)[C@H](Cc1c[nH]c2ccccc12)NC(=O)[C@H](CCC(N)=O)NC(=O)[C@@H](NC(=O)[C@H](Cc1ccccc1)NC(=O)[C@H](CC(=O)O)NC(=O)[C@H](CCCNC(=N)N)NC(=O)[C@H](C)NC(=O)[C@H](CCCNC(=N)N)NC(=O)[C@H](CCCCNC(=O)COCCOCCNC(=O)COCCOCCNC(=O)CC[C@H](NC(=O)CCCCCCCCCCCCCCCCCCC(=O)O)C(=O)O)NC(=O)[C@@H](NC(=O)[C@H](CC(=O)O)NC(=O)[C@H](CC(C)C)NC(=O)[C@](C)(Cc1ccccc1)NC(=O)[C@H](CCCCN)NC(=O)[C@H](CO)NC(=O)[C@@H](NC(=O)[C@H](CC(=O)O)NC(=O)[C@H](CO)NC(=O)[C@@H](NC(=O)[C@H](Cc1ccccc1)NC(=O)[C@@H](NC(=O)CNC(=O)[C@H](CCC(N)=O)NC(=O)C(C)(C)NC(=O)[C@@H](N)Cc1c[nH]cn1)[C@@H](C)O)[C@@H](C)O)C(C)C)[C@@H](C)O)C(C)C)C(=O)N[C@@H](CC(C)C)C(=O)N[C@@H](CCC(=O)O)C(=O)NC(C)(C)C(=O)N[C@@H](CCCCN)C(N)=O)", "note": "[Peptide 481]", "values": [{"measurement": "cAMP production EC50", "setting": "human GLP-1 receptor", "result": 0.0522, "unit": "nM"}, {"measurement": "cAMP production EC50", "setting": "human glucagon receptor", "result": 0.35, "unit": "nM"}]}
{"binder": "H[Aib]QGTFTSDVSK[αMeF]LDTK([AEEA-AEEA-γGlu-C20 diacid])RARDFVQWLL[Aib]TE-OH (N-terminus assumed; SMILES CC(C)C[C@H](NC(=O)[C@H](Cc1c[nH]c2ccccc12)NC(=O)[C@H](CCC(N)=O)NC(=O)[C@@H](NC(=O)[C@H](Cc1ccccc1)NC(=O)[C@H](CC(=O)O)NC(=O)[C@H](CCCNC(=N)N)NC(=O)[C@H](C)NC(=O)[C@H](CCCNC(=N)N)NC(=O)[C@H](CCCCNC(=O)COCCOCCNC(=O)COCCOCCNC(=O)CC[C@H](NC(=O)CCCCCCCCCCCCCCCCCCC(=O)O)C(=O)O)NC(=O)[C@@H](NC(=O)[C@H](CC(=O)O)NC(=O)[C@H](CC(C)C)NC(=O)[C@](C)(Cc1ccccc1)NC(=O)[C@H](CCCCN)NC(=O)[C@H](CO)NC(=O)[C@@H](NC(=O)[C@H](CC(=O)O)NC(=O)[C@H](CO)NC(=O)[C@@H](NC(=O)[C@H](Cc1ccccc1)NC(=O)[C@@H](NC(=O)CNC(=O)[C@H](CCC(N)=O)NC(=O)C(C)(C)NC(=O)[C@@H](N)Cc1c[nH]cn1)[C@@H](C)O)[C@@H](C)O)C(C)C)[C@@H](C)O)C(C)C)C(=O)N[C@@H](CC(C)C)C(=O)NC(C)(C)C(=O)N[C@H](C(=O)N[C@@H](CCC(=O)O)C(=O)O)[C@@H](C)O)", "note": "[Peptide 488]", "values": [{"measurement": "cAMP production EC50", "setting": "human GLP-1 receptor", "result": 0.202, "unit": "nM"}, {"measurement": "cAMP production EC50", "setting": "human glucagon receptor", "result": 0.301, "unit": "nM"}]}
